Patent US20210395322A1 (OSR, published 2021)

Biological target: T1, Noggin (UniProt Q13253 28-232, limits assumed)
T1 sequence (looked up): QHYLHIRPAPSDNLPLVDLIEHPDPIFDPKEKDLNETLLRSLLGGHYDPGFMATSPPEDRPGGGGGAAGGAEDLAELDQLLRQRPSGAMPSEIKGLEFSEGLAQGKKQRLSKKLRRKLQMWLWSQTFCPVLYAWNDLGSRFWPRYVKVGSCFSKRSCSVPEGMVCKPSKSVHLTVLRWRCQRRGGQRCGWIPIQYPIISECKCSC
Assay: size-exclusion chromatography of the AB204 and Noggin mixture

B1: AB204 (ligand)
chain: MQAKHKQRKRLKSSCKRHPLYVDFSDVGWNDWIIAPSGYHANYCDGECPFPLADHLNSTNHAIVQTLVNSVNSKIPKACCVPTKLRPMSMLYYDDGQNIIKKDIQNMIVEECGCS
notes: also called Noggin-insensitive chimera AB204
- binding result: no binding
